Target: NDR1 MBD and kinase domain (NDR1^MBD-KD, residues 12-418), wild type (human, UniProt Q15208 12-418)
Assay: HDX-MS

Sequence of NDR1 MBD and kinase domain (NDR1^MBD-KD, residues 12-418), wild type (Q15208 12-418): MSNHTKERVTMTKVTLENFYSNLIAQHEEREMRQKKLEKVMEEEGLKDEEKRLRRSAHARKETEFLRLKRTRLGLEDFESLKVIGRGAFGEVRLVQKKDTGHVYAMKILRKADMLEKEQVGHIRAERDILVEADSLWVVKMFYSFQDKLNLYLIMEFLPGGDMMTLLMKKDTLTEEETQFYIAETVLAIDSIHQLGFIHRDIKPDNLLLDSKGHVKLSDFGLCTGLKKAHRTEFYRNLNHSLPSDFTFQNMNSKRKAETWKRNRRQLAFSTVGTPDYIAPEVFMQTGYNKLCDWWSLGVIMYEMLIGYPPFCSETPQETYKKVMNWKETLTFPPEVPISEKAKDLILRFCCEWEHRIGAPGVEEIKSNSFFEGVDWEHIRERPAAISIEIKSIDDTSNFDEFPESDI

binding result: binds
B1: MOB1A (amino acids 2-216), recombinant (natural protein, human, UniProt Q9H8S9 2-216, looked up)
chain: SFLFSSRSSKTFKPKKNIPEGSHQYELLKHAEATLGSGNLRQAVMLPEGEDLNEWIAVNTVDFFNQINMLYGTITEFCTEASCPVMSAGPRYEYHWADGTNIKKPIKCSAPKYIDYLMTWVQDQLDDETLFPSKIGVPFPKNFMSVAKTILKRLFRVYAHIYHQHFDSVMQLQEEAHLNTSFKHFIFFVQEFNLIDRRELAPLQELIEKLGSKDR

Reference: PMC6087429 (Structure(London, England:1993), 2018)
